Patent US20090226456A1 (published 2009)

Tests used:
Experiment in all cases: flow cytometry on transiently transfected cells
[1] = target: T1, DR6 on transiently transfected cells (UniProt O75509 42-655, limits assumed)
T1 construct: whole, on cells
T1 sequence (looked up): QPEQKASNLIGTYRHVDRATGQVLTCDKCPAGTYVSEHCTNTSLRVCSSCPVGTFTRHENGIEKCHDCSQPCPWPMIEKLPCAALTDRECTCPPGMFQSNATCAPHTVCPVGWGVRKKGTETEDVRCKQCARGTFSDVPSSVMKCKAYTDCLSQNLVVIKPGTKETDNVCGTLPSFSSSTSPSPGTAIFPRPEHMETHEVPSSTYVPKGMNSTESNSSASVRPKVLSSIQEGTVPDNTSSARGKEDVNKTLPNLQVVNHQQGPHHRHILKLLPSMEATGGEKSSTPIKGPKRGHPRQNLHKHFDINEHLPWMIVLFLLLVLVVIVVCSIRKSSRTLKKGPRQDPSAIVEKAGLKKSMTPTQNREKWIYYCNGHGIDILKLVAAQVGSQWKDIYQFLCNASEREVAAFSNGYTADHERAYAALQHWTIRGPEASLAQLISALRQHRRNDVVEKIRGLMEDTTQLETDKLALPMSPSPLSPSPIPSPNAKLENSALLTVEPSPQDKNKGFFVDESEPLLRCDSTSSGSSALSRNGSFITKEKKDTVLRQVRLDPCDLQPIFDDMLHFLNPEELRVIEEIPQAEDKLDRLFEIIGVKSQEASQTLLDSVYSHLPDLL
Experimental: (§1) One million cells, in 0.1 ml of FACS buffer (PBS, 0.1% BSA, 0.1% NaN₃), were incubated with 0.1-1 microgram of protein or antibody at RT for 15 min. The cells were washed with 3 ml of FACS buffer, reacted with biotinylated primary antibody, and stained with PE-conjugated secondary antibody at RT for 15 min. Cells were then washed again, resuspended in 0.5 microgram/ml of propidium iodide, and live cells were gated and analyzed on a FACScan using the CellQuest software (BD Biosciences).

[2] = target: T2, DcR1 on transiently transfected cells (UniProt O14798 26-236, limits assumed)
T2 construct: whole, on cells
T2 sequence (looked up): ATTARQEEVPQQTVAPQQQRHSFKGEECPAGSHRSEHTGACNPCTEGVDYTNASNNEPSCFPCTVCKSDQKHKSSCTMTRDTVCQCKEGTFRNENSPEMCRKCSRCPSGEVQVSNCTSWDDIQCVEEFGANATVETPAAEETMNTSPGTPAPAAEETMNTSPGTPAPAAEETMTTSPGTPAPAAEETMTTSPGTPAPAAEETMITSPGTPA
Experimental: as §1

[3] = target: T3, DR5 on transiently transfected cells (UniProt O14763 56-440, limits assumed)
T3 construct: whole, on cells
Experimental: as §1

[4] = target: T4, TNFR2 on transiently transfected cells (human, UniProt P20333 23-461)
T4 sequence: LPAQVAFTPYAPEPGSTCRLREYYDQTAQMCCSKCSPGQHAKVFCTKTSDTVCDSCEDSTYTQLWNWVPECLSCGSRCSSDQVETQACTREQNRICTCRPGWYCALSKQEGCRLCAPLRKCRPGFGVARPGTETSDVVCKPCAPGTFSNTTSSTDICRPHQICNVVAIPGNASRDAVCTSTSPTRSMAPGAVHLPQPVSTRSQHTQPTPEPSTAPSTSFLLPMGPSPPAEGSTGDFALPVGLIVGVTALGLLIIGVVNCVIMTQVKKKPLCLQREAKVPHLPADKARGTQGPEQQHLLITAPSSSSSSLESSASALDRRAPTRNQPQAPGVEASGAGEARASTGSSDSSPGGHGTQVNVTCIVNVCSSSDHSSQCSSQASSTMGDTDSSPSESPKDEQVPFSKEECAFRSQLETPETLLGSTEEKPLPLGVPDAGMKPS
Experimental: as §1

[5] = target: T5, LTβR on transiently transfected cells (UniProt P36941 31-435, limits assumed)
T5 construct: whole, on cells
Experimental: as §1

[6] = target: T6, 4-1BB on transiently transfected cells (UniProt Q07011 24-255)
T6 construct: whole, on cells
Experimental: as §1

[7] = target: T7, AITR on transiently transfected cells (UniProt Q9Y5U5 26-241, limits assumed)
T7 construct: whole, on cells
T7 sequence (looked up): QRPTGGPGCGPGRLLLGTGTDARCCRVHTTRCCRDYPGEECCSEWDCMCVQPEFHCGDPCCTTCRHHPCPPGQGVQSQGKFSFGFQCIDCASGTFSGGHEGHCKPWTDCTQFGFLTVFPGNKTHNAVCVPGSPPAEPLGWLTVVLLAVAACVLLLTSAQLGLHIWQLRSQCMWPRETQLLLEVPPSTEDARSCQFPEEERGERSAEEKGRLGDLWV
Experimental: as §1

[8] = target: T8, HveA on transiently transfected cells (Homo sapiens (Human), UniProt Q92956 39-283)
T8 construct: also called HVEM/TR2
T8 sequence: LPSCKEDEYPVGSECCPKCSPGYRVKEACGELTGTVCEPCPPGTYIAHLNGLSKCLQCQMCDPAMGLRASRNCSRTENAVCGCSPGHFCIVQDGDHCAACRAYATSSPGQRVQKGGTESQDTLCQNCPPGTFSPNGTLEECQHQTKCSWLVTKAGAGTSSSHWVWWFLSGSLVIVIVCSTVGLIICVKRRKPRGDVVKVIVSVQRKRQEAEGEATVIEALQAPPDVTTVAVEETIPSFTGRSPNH
Experimental: as §1

[9] = target: T9, CD27 on transiently transfected cells (UniProt P26842 20-260, limits assumed)
T9 construct: whole, on cells
T9 sequence (looked up): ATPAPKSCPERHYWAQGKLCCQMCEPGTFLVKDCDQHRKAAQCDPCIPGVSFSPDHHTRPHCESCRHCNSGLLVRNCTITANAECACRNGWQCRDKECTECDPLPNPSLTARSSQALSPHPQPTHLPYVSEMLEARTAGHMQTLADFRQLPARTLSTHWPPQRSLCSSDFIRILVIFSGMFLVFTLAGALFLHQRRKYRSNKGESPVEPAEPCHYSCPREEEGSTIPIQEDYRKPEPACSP
Experimental: as §1

Measured: binding result

T6 sequence (Q07011 24-255): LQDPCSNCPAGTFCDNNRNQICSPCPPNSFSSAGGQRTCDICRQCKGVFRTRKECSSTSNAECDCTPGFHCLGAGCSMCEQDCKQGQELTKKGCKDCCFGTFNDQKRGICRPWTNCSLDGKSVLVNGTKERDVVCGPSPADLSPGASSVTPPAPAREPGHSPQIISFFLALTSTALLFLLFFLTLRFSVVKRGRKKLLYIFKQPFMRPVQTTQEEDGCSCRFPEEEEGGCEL
T5 sequence (P36941 31-435 limits assumed): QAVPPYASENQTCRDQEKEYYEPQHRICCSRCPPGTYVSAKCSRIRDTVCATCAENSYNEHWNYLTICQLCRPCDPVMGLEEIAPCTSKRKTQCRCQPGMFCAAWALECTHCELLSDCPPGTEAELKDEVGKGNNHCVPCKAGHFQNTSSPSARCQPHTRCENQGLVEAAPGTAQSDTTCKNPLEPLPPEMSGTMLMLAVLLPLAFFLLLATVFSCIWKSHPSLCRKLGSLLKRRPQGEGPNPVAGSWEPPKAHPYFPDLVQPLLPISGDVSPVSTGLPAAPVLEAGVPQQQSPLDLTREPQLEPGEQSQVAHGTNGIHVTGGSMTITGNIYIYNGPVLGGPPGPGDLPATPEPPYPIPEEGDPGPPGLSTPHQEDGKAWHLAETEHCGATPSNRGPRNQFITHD

B1: FLAG-tagged soluble TNF-gamma-beta (aa 72-251) (ligand, human)
chain: DYKDDDDKLKGQEFAPSHQQVYAPLRADGDKPRAHLTVVRQTPTQHFKNQFPALHWEHELGLAFTKNRMNYTNKFLLIPESGDYFIYSQVTFRGMTSECSEIRQAGRPNKPDSITVVITKVTDSYPEPTQLLMGTKSVCEVGSNWFQPIYLGAMFSLQEGDKLMVNVSDISLVDYTKEDKTFFGAFLL
notes: also called FLAG-TNF-gamma-beta; FLAG-TL1β
no binding: all assays above
